Results: patent publication US7192728B2, “Screening assays for agents that alter inhibitor of apoptosis (IAP) protein regulation of caspase activity” (The Burnham Institute, priority 1997, dated 2007)
Blank lines part the entries; values can stand above or below the molecule they belong to.

Assays:
[1] = system: DEVD-pNA hydrolysis activity in 293 cell cytosolic extracts; assay: Cytochrome c/dATP-induced caspase activation (DEVD hydrolysis) in 293 cell cytosolic extracts; assay type: biochemical, human; conditions: for DEVD-pNA hydrolysis, ΔA405 after 15 min: 293 extracts + cytochrome c/dATP, GST-XIAP 0.2 μM, GST controls 2 μM, His6-S5a 5 μM, untreated ≈0.01
Protocol: (§1) Cells were washed with ice cold buffer A (20 mM Hepes (pH 7.5), 10 mM KCl, 1.5 mM MgCl2, 1 mM EDTA, 1 mM DTT and 0.1 mM PMSF) and suspended in 1 vol buffer A, then incubated on ice for 20 min. 293 cells were disrupted by passage 15× through a 26 gauge needle and Jurkat T cells were disrupted by dounce homogenization in 2 ml using 15 strokes with a pestle B. Cell extracts (10–15 mg total protein/ml) were clarified by centrifugation at 16,000×g for 30 min, then the NaCl concentration was increased by 50 mM. Cytosolic fractions were used immediately or stored frozen at −80° C.
(§2) Caspase activity was assayed by release of either 7-amino-4-trifluoromethyl-coumarin (AFC) or p-nitroanilide (pNA) from benzylyoxycarbonyl-DEVD (SEQ ID NO: 2) or benzylyoxycarbonyl-YVAD (SEQ ID NO: 3) synthetic peptides using a Molecular Devices Spectromax 340 for AFC labeled peptides or Perkin/Elmer LS50B for pNA labeled peptides (see Example II; see, also, Zhou et al., supra, 1997). Cytosolic extracts from 293 cells or Jurkat T cells were used directly (negative control) or were treated with 1 μM cytochrome c and 1 mM dATP or with cytochrome c, dATP and 0.2 μM GST-XIAP. Additional control reactions were performed by substituting 2 μM GST-Bcl-2, GST-Bax, GST-NM23 or GST-CD40 cytosolic domain, or 5 μM His6-S5a protein for GST-XIAP. DEVD-pNA hydrolysis was measured at various times and multiple experiments were performed using several different GST-XIAP preparations.

[2] = system: DEVD-pNA hydrolysis activity in Jurkat T cell cytosolic extracts; assay: Cytochrome c/dATP-induced caspase activation (DEVD-pNA hydrolysis) in Jurkat T cell cytosolic extracts; assay type: biochemical; conditions: for DEVD-pNA hydrolysis, ΔA405 after 15 min: untreated ≈0.02; for DEVD-pNA hydrolysis, ΔA405 after 20 min: untreated ≈0.025
Protocol: as §1, §2

caspase-3 [3] = target: T1, caspase-3 (Homo sapiens, UniProt P42574); assay: Inhibition of purified recombinant caspase-3, DEVD substrate hydrolysis and progress curves; assay type: biochemical; conditions: DEVD-pNA hydrolysis
T1 construct: to produce the 17–20 kDa mature, fully processed large subunit of the active caspase-3 enzyme; a smaller, fully processed, subunit of about 11 kDa; His6; made in house; host or cells: E. coli BL21(DE3)pLysS
T1 sequence (P42574 29-175 limits assumed): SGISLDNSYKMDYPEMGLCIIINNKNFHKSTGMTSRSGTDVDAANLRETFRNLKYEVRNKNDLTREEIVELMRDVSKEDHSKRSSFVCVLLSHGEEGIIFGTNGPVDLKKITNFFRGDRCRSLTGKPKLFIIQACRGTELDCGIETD
T1 sequence (P42574 176-277 limits assumed): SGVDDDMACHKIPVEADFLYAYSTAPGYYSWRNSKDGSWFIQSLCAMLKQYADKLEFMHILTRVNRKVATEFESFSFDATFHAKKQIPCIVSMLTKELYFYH
Protocol: Purified recombinant caspase-1, caspase-3, caspase-6, caspase-7 or caspase-8 were incubated with DEVD-pNA, either alone or with a 10-fold to 50-fold molar excess of GST-XIAP ([…]) and substrate hydrolysis was measured. Purified active caspase concentrations ranged from 0.1 nM to 10 nM. XIAP concentration ranged from 0.1 nM to 500 nM. Assays were performed in caspase buffer (50 mM Tris, pH 7.4, 100 mM NaCl, 10% sucrose, 5–10 mM DTT, 1 mM EDTA and 0.1% CHAPS).
Equilibria were determined from progress curves when substrate hydrolysis reached a steady-state; slopes were calculated by curve fit analysis using the cricket graph program. Experiments were performed using purified recombinant caspase-3, caspase-6, or caspase-7. DEVD-AFC hydrolysis was measured using 0.1 nM caspase and a range of concentrations (0.2 to 12 μM) of recombinant XIAP (rXIAP). […] Average ratio velocities (vi/vo, where “vi” indicates presence of GST-XIAP and “vo” indicates absence of GST-XIAP) were determined.
Caspase activity was determined essentially as described in Example II, using the benzylyoxycarbonyl-DEVD-AFC (SEQ ID NO: 2) substrate and was assayed at 37° C. using the Perkin-Elmer LS50B fluorometric plate reader in the kinetic mode with excitation and emission wavelengths of 400 nm and 505 nm, respectively. […] Reactions were performed in caspase buffer (50 mM Hepes, 100 mM NaCl, 1 mM EDTA, 0.1% CHAPS, 10% sucrose, 5 mM DTT). The inhibition constant, Ki, was calculated as described (Zhou et al., supra, 1997). Immunoblot analysis was performed as described in Example I.B.3.

caspase-7 [4] = target: T2, caspase-7 (Homo sapiens, UniProt P55210); assay: Inhibition of purified recombinant caspase-7, DEVD substrate hydrolysis and progress curves; assay type: biochemical; conditions: DEVD-pNA hydrolysis
T2 construct: Purified active caspase concentrations ranged from 0.1 nM to 10 nM; His6; made in house; host or cells: E. coli BL21(DE3)pLysS
T2 sequence (P55210 24-198 limits assumed): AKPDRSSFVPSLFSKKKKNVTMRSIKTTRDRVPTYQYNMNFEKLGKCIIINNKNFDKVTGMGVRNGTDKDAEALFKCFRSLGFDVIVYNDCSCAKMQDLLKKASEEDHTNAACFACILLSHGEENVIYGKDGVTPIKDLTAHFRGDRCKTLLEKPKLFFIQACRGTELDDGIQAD
T2 sequence (P55210 207-303 limits assumed): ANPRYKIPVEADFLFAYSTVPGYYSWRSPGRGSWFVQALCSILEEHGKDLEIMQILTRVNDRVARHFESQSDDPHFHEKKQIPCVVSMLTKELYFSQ

caspase-3 [5] = target: T1, caspase-3; assay: GST pull-down binding to caspase-3; conditions: glutathione-Sepharose beads, immunoblot
Protocol: (§3) Following incubation at 4° C. for 60 min, the beads were removed by centrifugation and washed twice with 100 vol 50 mM Tris (pH 7.5), 150 mM KCl, 2 mM DTT and 0.025% Triton-X100, then subjected to SDS-PAGE and immunoblot assay (see Example I.B.3).

caspase-7 [6] = target: T2, caspase-7; assay: GST pull-down binding to caspase-7; conditions: glutathione-Sepharose beads, immunoblot
Protocol: as §3

[7] = listed as GST-fusion containing the RING domain

Molecule: GST-Bax: recombinant control protein, GST fusion of Bax [reference compound]
- DEVD-pNA hydrolysis, ΔA405 after 15 min [1]: ≈ 0.1
- DEVD-pNA hydrolysis, ΔA405 after 15 min [2]: ≈ 0.09
- DEVD-pNA hydrolysis, ΔA405 after 20 min [2]: ≈ 0.1

B1: GST fusion protein containing only the three BIR domains of XIAP: GST fusion of XIAP amino acids 1–337 (three BIR domains) (protein, UniProt P98170 1-337, looked up, fragment)
chain: MTFNSFEGSKTCVPADINKEEEFVEEFNRLKTFANFPSGSPVSASTLARAGFLYTGEGDTVRCFSCHAAVDRWQYGDSAVGRHRKVSPNCRFINGFYLENSATQSTNSGIQNGQYKVENYLGSRDHFALDRPSETHADYLLRTGQVVDISDTIYPRNPAMYSEEARLKSFQNWPDYAHLTPRELASAGLYYTGIGDQVQCFCCGGKLKNWEPCDRAWSEHRRHFPNCFFVLGRNLNIRSESDAVSSDRNFPNSTNLPRNPSMADYEARIFTFGTWIYSVNKEQLARAGFYALGEGDKVKCFHCGGGLTDWKPSEDPWEQHAKWYPGCKYLLEQKGQE
modifications: GST fusion
- inhibition of caspase-3 in vitro (in words) (caspase-3 [3]): potently inhibited
- inhibition of caspase-7 in vitro (in words) (caspase-7 [4]): potently inhibited

B4: His6-S5a: recombinant control protein, His6-S5a proteasome subunit (protein, UniProt P55036 1-377, looked up)
26S proteasome non-ATPase …: MVLESTMVCVDNSEYMRNGDFLPTRLQAQQDAVNIVCHSKTRSNPENNVGLITLANDCEVLTTLTPDTGRILSKLHTVQPKGKITFCTGIRVAHLALKHRQGKNHKMRIIAFVGSPVEDNEKDLVKLAKRLKKEKVNVDIINFGEEEVNTEKLTAFVNTLNGKDGTGSHLVTVPPGPSLADALISSPILAGEGGAMLGLGASDFEFGVDPSADPELALALRVSMEEQRQRQEEEARRAAAASAAEAGIATTGTEDSDDALLKMTISQQEFGRTGLPDLSSMTEEEQIAYAMQMSLQGAEFGQAESADIDASSAMDTSEPAKEEDDYDVMQDPEFLQSVLENLPGVDPNNEAIRNAMGSLASQATKDGKKDKKEEDKK
modifications: His6 tag
notes: recombinant control protein, His6-S5a proteasome subunit
- DEVD-pNA hydrolysis, ΔA405 after 15 min [1]: ≈ 0.1
- DEVD-pNA hydrolysis, ΔA405 after 15 min [2]: ≈ 0.09
- DEVD-pNA hydrolysis, ΔA405 after 20 min [2]: ≈ 0.1

Further lines, with some results ahead:

- binding of caspase-3 (in words) (caspase-3 [5]): bound
- binding of caspase-7 (in words) (caspase-7 [6]): bound
B2: NAIP: neuronal apoptosis inhibitory protein, GST construct (protein, UniProt Q13075 1-1403, looked up)
Baculoviral IAP …: MATQQKASDERISQFDHNLLPELSALLGLDAVQLAKELEEEEQKERAKMQKGYNSQMRSEAKRLKTFVTYEPYSSWIPQEMAAAGFYFTGVKSGIQCFCCSLILFGAGLTRLPIEDHKRFHPDCGFLLNKDVGNIAKYDIRVKNLKSRLRGGKMRYQEEEARLASFRNWPFYVQGISPCVLSEAGFVFTGKQDTVQCFSCGGCLGNWEEGDDPWKEHAKWFPKCEFLRSKKSSEEITQYIQSYKGFVDITGEHFVNSWVQRELPMASAYCNDSIFAYEELRLDSFKDWPRESAVGVAALAKAGLFYTGIKDIVQCFSCGGCLEKWQEGDDPLDDHTRCFPNCPFLQNMKSSAEVTPDLQSRGELCELLETTSESNLEDSIAVGPIVPEMAQGEAQWFQEAKNLNEQLRAAYTSASFRHMSLLDISSDLATDHLLGCDLSIASKHISKPVQEPLVLPEVFGNLNSVMCVEGEAGSGKTVLLKKIAFLWASGCCPLLNRFQLVFYLSLSSTRPDEGLASIICDQLLEKEGSVTEMCVRNIIQQLKNQVLFLLDDYKEICSIPQVIGKLIQKNHLSRTCLLIAVRTNRARDIRRYLETILEIKAFPFYNTVCILRKLFSHNMTRLRKFMVYFGKNQSLQKIQKTPLFVAAICAHWFQYPFDPSFDDVAVFKSYMERLSLRNKATAEILKATVSSCGELALKGFFSCCFEFNDDDLAEAGVDEDEDLTMCLMSKFTAQRLRPFYRFLSPAFQEFLAGMRLIELLDSDRQEHQDLGLYHLKQINSPMMTVSAYNNFLNYVSSLPSTKAGPKIVSHLLHLVDNKESLENISENDDYLKHQPEISLQMQLLRGLWQICPQAYFSMVSEHLLVLALKTAYQSNTVAACSPFVLQFLQGRTLTLGALNLQYFFDHPESLSLLRSIHFPIRGNKTSPRAHFSVLETCFDKSQVPTIDQDYASAFEPMNEWERNLAEKEDNVKSYMDMQRRASPDLSTGYWKLSPKQYKIPCLEVDVNDIDVVGQDMLEILMTVFSASQRIELHLNHSRGFIESIRPALELSKASVTKCSISKLELSAAEQELLLTLPSLESLEVSGTIQSQDQIFPNLDKFLCLKELSVDLEGNINVFSVIPEEFPNFHHMEKLLIQISAEYDPSKLVKLIQNSPNLHVFHLKCNFFSDFGSLMTMLVSCKKLTEIKFSDSFFQAVPFVASLPNFISLKILNLEGQQFPDEETSEKFAYILGSLSNLEELILPTGDGIYRVAKLIIQQCQQLHCLRVLSFFKTLNDDSVVEIAKVAISGGFQKLENLKLSINHKITEEGYRNFFQALDNMPNLQELDISRHFTECIKAQATTVKSLSQCVLRLPRLIRLNMLSWLLDADDIALLNVMKERHPQSKYLTILQKWILPFSPIIQK
modifications: GST tag

- binding of caspase-3 (in words) (caspase-3 [5]): bound
- binding of caspase-7 (in words) (caspase-7 [6]): bound
B3: c-IAP-1(BIR): construct comprising the BIR domains of c-IAP-1 (positions 1 to 350) (protein)
chain: MHKTASQRLFPGPSYQNIKSIMEDSTILSDWTNSNKQKMKYDFSCELYRMSTYSTFPAGVPVSERSLARAGFYYTGVNDKVKCFCCGLMLDNWKLGDSPIQKHKQLYPSCSFIQNLVSASLGSTSKNTSPMRNSFAHSLSPTLEHSSLFSGSYSSLSPNPLNSRAVEDISSSRTNPYSYAMSTEEARFLTYHMWPLTFLSPSELARAGFYYIGPGDRVACFACGGKLSNWEPKDDAMSEHRRHFPNCPFLENSLETLRFSISNLSMQTHAARMRTFMYWPSSVPVQPEQLASAGFYYVGRNDDVKCFCCDGGLRCWESGDDPWVEHAKWFPRCEFLIRMKGQEFVDEIQG
modifications: left off: a dimerising Fc or GST
- DEVD hydrolysis in activated 293 cell cytosolic extracts (in words) ([1]; 3 μM, extracts activated 30 min with cytochrome c and dATP): inhibited DEVD hydrolysis

- inhibition of caspase-3 in vitro (in words) (caspase-3 [3]): had no effect
- inhibition of caspase-3 in vitro (in words) (caspase-3 [3]; [7]): no significant effect
- inhibition of caspase-7 in vitro (in words) (caspase-7 [4]): had no effect
- inhibition of caspase-7 in vitro (in words) (caspase-7 [4]; [7]): no significant effect
B5: GST fusion protein containing the RING domain: GST fusion of XIAP amino acids 338–497 (RING domain) (protein, UniProt P98170 338-497, looked up, fragment)
chain: YINNIHLTHSLEECLVRTTEKTPSLTRRIDDTIFQNPMVQEAIRMGFSFKDIKKIMEEKIQISGSNYKSLEVLVADLVNAQKDSMQDESSQTSLQKEISTEEQLRRLQEEKLCKICMDRNIAIVFVPCGHLVTCKQCAEAVDKCPMCYTVITFKQKIFMS
modifications: GST fusion
